B1: LINE1-full (parent)
chain: UACGUAGGUGGUUUUCCCCUGAUAGUGCUAAGGGGGCCUGGAAGUUUGGACUGGGCAGAGCUCAACACAGCGUGGCAAAGUGGCUGUGGCUAGACUGCCUCUCUGGAUUCCUCGUCACUCAGCAGGGCAUCUCUGAGAGAAAUGCC

In this data set the parent is B1. As to the kind of experiment: self-cleavage, relative activity (ratio to wild type); higher = more cleavage; in vitro, sequencing; the parent is a self-cleaving ribozyme.
In the case of UACGUAGGUGGUAUUCCCCUGAUAGUGCUAAGGGGGCCUGGGAGUUUGGACUGGGCAGAGCUCAACACAGCGUGGCAAAGUGGCUGUGGCUAGACUGCCUCUCUGGAUUCCUCGUCACUCAGCAGGGCAUCUCUGAGAGAAAUGCC [U13A A42G], the self-cleavage is 1.26.

As for UACGUAGGUGGGUUUCCCCUGAUAGUGCUAAGGGGGCCUGGAAGCUUGGACUGGGCAGAGCUCAACACAGCGUGGCAAAGUGGCUGUGGCUAGACUGCCUCUCUGGAUUCCUCGUCACUCAGCAGGGCAUCUCUGAGAGAAAUGCC [U12G U45C], the self-cleavage came to 1.48.

Regarding UACGUAGGUGGGUUUCCCCUGAUAGUGCUAAGGGGGCCUGGAAGUUUGGACUGGGCAGAGCUCAACACAGCGUGGCAAAGUGGCUGUGGCUAGACUGCCUCUCUGGAUUCCUCGACACUCAGCAGGGCAUCUCUGAGAGAAAUGCC [U12G U115A], the self-cleavage stood at 0.75.

For UACGUAGGUGGGUUUCCCCUGAUAGUGCUAAGGGGGCCUGGAAGUUUGGACUGGGCAGAGCUCAACACAGCGUGGCAAAGUGGCUGUGGCUAGACUGCCUCUCUGGAUUCCUCGCCACUCAGCAGGGCAUCUCUGAGAGAAAUGCC [U12G U115C], the self-cleavage was 1.47.

Turning to UACGUAGGUGGGUUUCCCCUGAUAGUGCUAAGGGGGCCUGGAAGUUUGGACUGGGCAGAGCUCAACACAGCGUGGCAAAGUGGCUGUGGCUAGACUGCCUCUCUGGAUUCCUCGGCACUCAGCAGGGCAUCUCUGAGAGAAAUGCC [U12G U115G], the self-cleavage was determined as 0.

For UACGUAGGUGGGUUUCCCCUGAUAGUGCUAAGGGGGCCUGGAAGUUUGGACUGGGCAGAGCUCAACACAGCGUGGCAAAGCGGCUGUGGCUAGACUGCCUCUCUGGAUUCCUCGUCACUCAGCAGGGCAUCUCUGAGAGAAAUGCC [U12G U81C], the self-cleavage was 0.86.

On to UACGUAGGUGGGUUUCCCCCGAUAGUGCUAAGGGGGCCUGGAAGUUUGGACUGGGCAGAGCUCAACACAGCGUGGCAAAGUGGCUGUGGCUAGACUGCCUCUCUGGAUUCCUCGUCACUCAGCAGGGCAUCUCUGAGAGAAAUGCC [U12G U20C], for which the self-cleavage is 1.02.

UACGUAGGUGGGUUUCCCCUGAUAGUGCUAAGGGGGCCUGGAAGUUUGGACUGGGCAGAGCUCAACACAGCGUGGCAAAGUGGCUGUGGCUAGACUGCCUCUCUGGAUCCCUCGUCACUCAGCAGGGCAUCUCUGAGAGAAAUGCC [U12G U109C]: the self-cleavage amounted to 1.57.

As for UACGUAGGUGGGUUUCCCCUGAAAGUGCUAAGGGGGCCUGGAAGUUUGGACUGGGCAGAGCUCAACACAGCGUGGCAAAGUGGCUGUGGCUAGACUGCCUCUCUGGAUUCCUCGUCACUCAGCAGGGCAUCUCUGAGAGAAAUGCC [U12G U23A], the self-cleavage was 0.85.

Turning to UACGUAGGUGGGUUUCCCCUGAUAGUGCUAAGGGGGCCUGGAAGUUUGGACUGGGCAGAGCUCAACACAGCGUGGCAAAGUGGCUGUGGCUAGACUGCCUCUCUGGAUUCCUCAUCACUCAGCAGGGCAUCUCUGAGAGAAAUGCC [U12G G114A], the self-cleavage is 1.07.

Turning to UACGUAGGUGGGUUUCCCCUGAUAGUGCUAAGGGGGCCUGGAAGUCUGGACUGGGCAGAGCUCAACACAGCGUGGCAAAGUGGCUGUGGCUAGACUGCCUCUCUGGAUUCCUCGUCACUCAGCAGGGCAUCUCUGAGAGAAAUGCC [U12G U46C], the self-cleavage was determined as 1.29.

Consider UACGUAGGUGGGUUUCCCCUGAUAGUGCCAAGGGGGCCUGGAAGUUUGGACUGGGCAGAGCUCAACACAGCGUGGCAAAGUGGCUGUGGCUAGACUGCCUCUCUGGAUUCCUCGUCACUCAGCAGGGCAUCUCUGAGAGAAAUGCC [U12G U29C], for which the self-cleavage amounted to 1.02.

UACGUAGGUGGGUUUCCCCUGAUAGUGCUAAGGGGGCCUGGAAGUUUGGACUGGGCAGAGCUCAACACAGCGUGGCAAAGUGGCUGUGGCUAGACUUCCUCUCUGGAUUCCUCGUCACUCAGCAGGGCAUCUCUGAGAGAAAUGCC [U12G G97U]: the self-cleavage was 0.07.

With UACGUAGGUGGGUUUCCCCUGAUAGUGCUAAGGGGGCCUGGAAGUUUGGACUGGGCAGAGCUCAACACAGCGUGGCAAAGUGGCUGUGGCUAGACUGCCUCUCUGGAUUCCCCGUCACUCAGCAGGGCAUCUCUGAGAGAAAUGCC [U12G U112C], the self-cleavage was found to be 1.01.

UACGUAGGUGGUAUUCCCCUGAUAGUGCUAAGGGGGCCUGGAAGUUUGGGCUGGGCAGAGCUCAACACAGCGUGGCAAAGUGGCUGUGGCUAGACUGCCUCUCUGGAUUCCUCGUCACUCAGCAGGGCAUCUCUGAGAGAAAUGCC [U13A A50G]: the self-cleavage amounted to 0.76.

Consider UACGUAGGUGGGUUUCCCCUGAUAGUGCUAAGGGGGCCUGGAAGUUUGGACUGGGCAGAGCUCAACACAGCGUGGCAAAGUGGCUGUGGCAAGACUGCCUCUCUGGAUUCCUCGUCACUCAGCAGGGCAUCUCUGAGAGAAAUGCC [U12G U91A], for which the self-cleavage came to 0.97.

As to UACGUAGGUGGGUUUCCCCUGAUAGUGCUAAGGGGGCCUGGAAGUUUGGACUGGGCAGAGCUCAACACAGCGUGGCAAAGUGGCUGUGGCUAGACUGCCUCUCUGGAGUCCUCGUCACUCAGCAGGGCAUCUCUGAGAGAAAUGCC [U12G U108G], the self-cleavage was 0.82.

Regarding UACGUAGGUGGGUUUCCCCUGAUAGUGCUAAGGGGGCCUGGAAGUUUGGACUGGGCAGAGCUCAACACAGCGUGGCAAAGUGGCCGUGGCUAGACUGCCUCUCUGGAUUCCUCGUCACUCAGCAGGGCAUCUCUGAGAGAAAUGCC [U12G U85C], the self-cleavage was 0.4.

As for UACGUAGGUGGGUUUCCCCUGAUAGUGCUAAGGGGGCCCGGAAGUUUGGACUGGGCAGAGCUCAACACAGCGUGGCAAAGUGGCUGUGGCUAGACUGCCUCUCUGGAUUCCUCGUCACUCAGCAGGGCAUCUCUGAGAGAAAUGCC [U12G U39C], the self-cleavage stood at 1.61.

As for UACGUAGGUGGGUUUCCCCUGAUAGUGCUAAGGGGGCCUGGAAGUUUGGACAGGGCAGAGCUCAACACAGCGUGGCAAAGUGGCUGUGGCUAGACUGCCUCUCUGGAUUCCUCGUCACUCAGCAGGGCAUCUCUGAGAGAAAUGCC [U12G U52A], the self-cleavage was 1.22.

For UACGUAGGUGGGUUUCCCCUGAUAGUGCUAAGGGGGCCUGGAAGUUUGGACCGGGCAGAGCUCAACACAGCGUGGCAAAGUGGCUGUGGCUAGACUGCCUCUCUGGAUUCCUCGUCACUCAGCAGGGCAUCUCUGAGAGAAAUGCC [U12G U52C], the self-cleavage amounted to 0.79.

For UACGUAGGUGGGUUUCCCCUGAUAGUGCUAAGGGGGCCUGGAAGUUUGGACUGGGCAGAGCUCAACACAGCGUGGCAAAGUGGCUGUGGCUAGACAGCCUCUCUGGAUUCCUCGUCACUCAGCAGGGCAUCUCUGAGAGAAAUGCC [U12G U96A], the self-cleavage was found to be 0.21.

Consider UACGUAGGUGGGUUUCCCCUGAUAGUGCUAAGGGGGCCUGGAAGUUUGGACUGGGCAGAGCUCAACACAGCGUGGCAAAGUGGCUGUGGCUAAACUGCCUCUCUGGAUUCCUCGUCACUCAGCAGGGCAUCUCUGAGAGAAAUGCC [U12G G93A], for which the self-cleavage is 0.

As to UACGUAGGUGGGUUUCCCCUGAUAGUGCUAAGGGGGCCUGGAAGUUUGGACUGGGCAGAGCUCAACACAGCGUGGCAAAGUGGCUGUGGCUAGACUGCCUCUCUGGAUUCCUCGUCACUCAGCAGGGCAUCUCUGAGAGAAACGCC [U12G U143C], the self-cleavage was found to be 1.23.

On to UACGUAGGUGGGCUUCCCCUGAUAGUGCUAAGGGGGCCUGGAAGUUUGGACUGGGCAGAGCUCAACACAGCGUGGCAAAGUGGCUGUGGCUAGACUGCCUCUCUGGAUUCCUCGUCACUCAGCAGGGCAUCUCUGAGAGAAAUGCC [U12G U13C], for which the self-cleavage came out at 0.95.

With UACGUAGGUGGUAUUCCCCUGAUAGUGCUUAGGGGGCCUGGAAGUUUGGACUGGGCAGAGCUCAACACAGCGUGGCAAAGUGGCUGUGGCUAGACUGCCUCUCUGGAUUCCUCGUCACUCAGCAGGGCAUCUCUGAGAGAAAUGCC [U13A A30U], the self-cleavage turned out to be 0.7.

Regarding UACGUAGGUGGUAUUCCCCUGAUAGUGCUAAGGGGGCCUGGAAGUUUGGACUGGGCAGAGCUCAACACAGCGUGGCAAAGUGGCUGUGGCUAGACUGCCUCUCUGGAUUCCUCGUCACUCAGCAGGGCAUCUCUGAGAGAAAUGCC [U13A], the self-cleavage came out at 0.98.

With UACGUAGGUGGGUUUCCCCUGAUAGUGCUAAGGGGGCCUGGAAGUUUGGACUGGGCAGAGCUCAACACAGCGUGGCAAAGUGGCUGUGGCUAGACUGCCUCUCUGGAUUCCUCGUCACUCAGCAGGGCAUCACUGAGAGAAAUGCC [U12G U132A], the self-cleavage turned out to be 0.66.

In the case of UACGUAGGUGGGUUUCCCCUGAUAGUGCUAAGGGGGCCUGGAAGUUUGGACUGGGCAGAGCUCAACACAGCGUGGCAAAGUGGCUGUGGCUAGACUGCCUCUCUGGAUUCCUCGUCACUCAGCAGGGCAUCCCUGAGAGAAAUGCC [U12G U132C], the self-cleavage turned out to be 1.02.

Take UACGUAGGUGGGUUUCCCCUGAUAGUGCUAAGGGGGCCUGGAAGUUUGGACUGGGCAGAGCUCAACACAGCGUGGCAAAGUGGCUGUGGCUAGACUGCCUCUCUGGAUUCCUCGUCACUCAGCAGGGCAACUCUGAGAGAAAUGCC [U12G U130A]: the self-cleavage came to 1.65.

On to UACGUAGGUGGGUUUCCCCUGAUAGUGCUAAGGGGGCCUGGAAGUUCGGACUGGGCAGAGCUCAACACAGCGUGGCAAAGUGGCUGUGGCUAGACUGCCUCUCUGGAUUCCUCGUCACUCAGCAGGGCAUCUCUGAGAGAAAUGCC [U12G U47C], for which the self-cleavage is 1.04.

Regarding UACGUAGGUGGGUUUCCCCUGAUAGUGCUAAGGGGGCCUGGAAGUUUGGACUGGGCAGAGCUCAACACAGCGUGGCAAAGUGGCUGUGGCUAGACUGCCUCUCCGGAUUCCUCGUCACUCAGCAGGGCAUCUCUGAGAGAAAUGCC [U12G U104C], the self-cleavage was found to be 1.48.

Take UACGUAGGUGGGUUUCCCCUGAUAGUGCUAAGGGGGCCUGGAAGUUUGGACUGGGCAGAGCCCAACACAGCGUGGCAAAGUGGCUGUGGCUAGACUGCCUCUCUGGAUUCCUCGUCACUCAGCAGGGCAUCUCUGAGAGAAAUGCC [U12G U62C]: the self-cleavage is 0.14.

Consider UACGUAGGUGGGUUUCCCCUGAUAGUGCUAAGGGGGCCUGGAAGUUUGGACUGGGCAGAGCACAACACAGCGUGGCAAAGUGGCUGUGGCUAGACUGCCUCUCUGGAUUCCUCGUCACUCAGCAGGGCAUCUCUGAGAGAAAUGCC [U12G U62A], for which the self-cleavage stood at 0.16.

Consider UACGUAGGUGGUAUUCCCCUGAUGGUGCUAAGGGGGCCUGGAAGUUUGGACUGGGCAGAGCUCAACACAGCGUGGCAAAGUGGCUGUGGCUAGACUGCCUCUCUGGAUUCCUCGUCACUCAGCAGGGCAUCUCUGAGAGAAAUGCC [U13A A24G], for which the self-cleavage is 0.53.

For the variant UACGUAGGUGGGUUUCCCCUGAUAGUGCUAAGGGGGCCUGGAAGUUUGGACUGGGCAGAGCUCAACACAGCGUGGCAAAGUGGCUGUGGCUAGACUGCCUCUCUGGAUUCCUCGUCACCCAGCAGGGCAUCUCUGAGAGAAAUGCC [U12G U119C], the self-cleavage is 1.34.

For the variant UACGUAGGUGGGUUUCCCCUGAUAGUGCUAAGGGGGCCUGGAAGUUUGGACUGGGCAGAGCUCAACACAGCGUGGCAAAGUGGCUGUGGCUAGACUGCCUCUCUGGAUUCCUCGUCACACAGCAGGGCAUCUCUGAGAGAAAUGCC [U12G U119A], the self-cleavage came to 1.32.

Consider UACGUAGGUGGGUUUCCCCUGAUAGCGCUAAGGGGGCCUGGAAGUUUGGACUGGGCAGAGCUCAACACAGCGUGGCAAAGUGGCUGUGGCUAGACUGCCUCUCUGGAUUCCUCGUCACUCAGCAGGGCAUCUCUGAGAGAAAUGCC [U12G U26C], for which the self-cleavage is 0.57.

With UACGUAGGUGGGUUUCCCCUGAUAGAGCUAAGGGGGCCUGGAAGUUUGGACUGGGCAGAGCUCAACACAGCGUGGCAAAGUGGCUGUGGCUAGACUGCCUCUCUGGAUUCCUCGUCACUCAGCAGGGCAUCUCUGAGAGAAAUGCC [U12G U26A], the self-cleavage is 1.3.

(Values after the RNAGym collection of RNA variant scans (doi:10.7554/elife.90254).)
